{
  "source": "paper doi:10.1101/152850",
  "about": "(bioRxiv, 2017)",
  "key": {"[1]": {"biological_target": "the molecule itself", "assay": "SEC"}, "[2]": {"biological_target": "T1, IFIT1 wild-type (human, UniProt P09914 1-478)", "T1 sequence": "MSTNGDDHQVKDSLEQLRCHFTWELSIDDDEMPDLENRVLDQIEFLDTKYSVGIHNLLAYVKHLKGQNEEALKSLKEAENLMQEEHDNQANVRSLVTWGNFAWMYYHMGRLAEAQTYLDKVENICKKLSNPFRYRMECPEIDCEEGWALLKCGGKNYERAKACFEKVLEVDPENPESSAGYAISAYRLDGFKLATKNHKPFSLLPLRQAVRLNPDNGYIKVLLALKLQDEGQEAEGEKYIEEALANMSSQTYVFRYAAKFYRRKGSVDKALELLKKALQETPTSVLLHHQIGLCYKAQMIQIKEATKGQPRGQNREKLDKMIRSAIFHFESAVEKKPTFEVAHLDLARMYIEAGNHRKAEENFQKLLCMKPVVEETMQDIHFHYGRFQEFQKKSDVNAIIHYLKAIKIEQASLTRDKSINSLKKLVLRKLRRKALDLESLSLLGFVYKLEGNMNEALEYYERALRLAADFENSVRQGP", "assay": "limited proteolysis"}, "[3]": {"biological_target": "T1, IFIT1 wild-type", "assay": "X-ray crystallography"}, "[4]": {"biological_target": "T1, IFIT1 wild-type", "assay": "X-ray crystallography", "remark": "listed apart in the source"}, "[5]": {"biological_target": "the molecule itself", "assay": "SEC-MALS"}},
  "data": [
    {"binder": "IFIT2 (natural protein, UniProt P09913 1-472, looked up) MSENNKNSLESSLRQLKCHFTWNLMEGENSLDDFEDKVFYRTEFQNREFKATMCNLLAYLKHLKGQNEAALECLRKAEELIQQEHADQAEIRSLVTWGNYAWVYYHMGRLSDVQIYVDKVKHVCEKFSSPYRIESPELDCEEGWTRLKCGGNQNERAKVCFEKALEKKPKNPEFTSGLAIASYRLDNWPPSQNAIDPLRQAIRLNPDNQYLKVLLALKLHKMREEGEEEGEGEKLVEEALEKAPGVTDVLRSAAKFYRRKDEPDKAIELLKKALEYIPNNAYLHCQIGCCYRAKVFQVMNLRENGMYGKRKLLELIGHAVAHLKKADEANDNLFRVCSILASLHALADQYEDAEYYFQKEFSKELTPVAKQLLHLRYGNFQLYQMKCEDKAIHHFIEGVKINQKSREKEKMKDKLQKIAKMRLSKNGADSEALHVLAFLQELNEKMQQADEDSERGLESGSLIPSASSWNGE", "values": [
      {"measurement": "stoichiometry N", "setting": "[1]", "value": 2}
    ]},
    {"binder": "IFIT5-IFIT1 chimera (IFIT5^i1TPR9): human IFIT5 α1-α21 (residues 1-435) and human IFIT1 α22-α23 (TPR9, residues 437-478) (other, UniProt Q13325 1-435, looked up) MSEIRKDTLKAILLELECHFTWNLLKEDIDLFEVEDTIGQQLEFLTTKSRLALYNLLAYVKHLKGQNKDALECLEQAEEIIQQEHSDKEEVRSLVTWGNYAWVYYHMDQLEEAQKYTGKIGNVCKKLSSPSNYKLECPETDCEKGWALLKFGGKYYQKAKAAFEKALEVEPDNPEFNIGYAITVYRLDDSDREGSVKSFSLGPLRKAVTLNPDNSYIKVFLALKLQDVHAEAEGEKYIEEILDQISSQPYVLRYAAKFYRRKNSWNKALELLKKALEVTPTSSFLHHQMGLCYRAQMIQIKKATHNRPKGKDKLKVDELISSAIFHFKAAMERDSMFAFAYTDLANMYAEGGQYSNAEDIFRKALRLENITDDHKHQIHYHYGRFQEFHRKSENTAIHHYLEALKVKDRSPLRTKLTSALKKLSTKRLCHNALDVLESLSLLGFVYKLEGNMNEALEYYERALRLAADFENSVRQGP", "values": [
      {"measurement": "stoichiometry N", "setting": "[1]", "value": 2}
    ]},
    {"binder": "AAAA (ssRNA, 5' Gppp cap (cap G not in strand))", "note": "[Gppp-oligoA (Gppp-AAAA)]", "values": [
      {"measurement": "binding result", "setting": "[2]", "value": "binds"}
    ]},
    {"binder": "AAAA (ssRNA, 5' triphosphate)", "note": "[PPP-oligoA (PPP-AAAA)]", "values": [
      {"measurement": "binding result", "setting": "[3]", "value": "binds"}
    ]},
    {"binder": "AAAA (ssRNA, 5' m7Gppp cap (cap G not in strand))", "note": "[m7Gppp-oligoA (m7Gppp-AAAA)]", "values": [
      {"measurement": "binding result", "setting": "[4]", "value": "binds"}
    ]},
    {"binder": "human IFIT1, wild-type, full-length (residues 1-478) (natural protein, UniProt P09914 1-478, looked up) MSTNGDDHQVKDSLEQLRCHFTWELSIDDDEMPDLENRVLDQIEFLDTKYSVGIHNLLAYVKHLKGQNEEALKSLKEAENLMQEEHDNQANVRSLVTWGNFAWMYYHMGRLAEAQTYLDKVENICKKLSNPFRYRMECPEIDCEEGWALLKCGGKNYERAKACFEKVLEVDPENPESSAGYAISAYRLDGFKLATKNHKPFSLLPLRQAVRLNPDNGYIKVLLALKLQDEGQEAEGEKYIEEALANMSSQTYVFRYAAKFYRRKGSVDKALELLKKALQETPTSVLLHHQIGLCYKAQMIQIKEATKGQPRGQNREKLDKMIRSAIFHFESAVEKKPTFEVAHLDLARMYIEAGNHRKAEENFQKLLCMKPVVEETMQDIHFHYGRFQEFQKKSDVNAIIHYLKAIKIEQASLTRDKSINSLKKLVLRKLRRKALDLESLSLLGFVYKLEGNMNEALEYYERALRLAADFENSVRQGP", "values": [
      {"measurement": "stoichiometry N", "setting": "[5]", "value": 2}
    ]},
    {"binder": "human IFIT1 K448E (natural protein, UniProt P09914 1-478, looked up) MSTNGDDHQVKDSLEQLRCHFTWELSIDDDEMPDLENRVLDQIEFLDTKYSVGIHNLLAYVKHLKGQNEEALKSLKEAENLMQEEHDNQANVRSLVTWGNFAWMYYHMGRLAEAQTYLDKVENICKKLSNPFRYRMECPEIDCEEGWALLKCGGKNYERAKACFEKVLEVDPENPESSAGYAISAYRLDGFKLATKNHKPFSLLPLRQAVRLNPDNGYIKVLLALKLQDEGQEAEGEKYIEEALANMSSQTYVFRYAAKFYRRKGSVDKALELLKKALQETPTSVLLHHQIGLCYKAQMIQIKEATKGQPRGQNREKLDKMIRSAIFHFESAVEKKPTFEVAHLDLARMYIEAGNHRKAEENFQKLLCMKPVVEETMQDIHFHYGRFQEFQKKSDVNAIIHYLKAIKIEQASLTRDKSINSLKKLVLRKLRRKALDLESLSLLGFVYELEGNMNEALEYYERALRLAADFENSVRQGP", "values": [
      {"measurement": "binding result", "setting": "[1]", "value": "binds"}
    ]}
  ]
}
